For one substance, Kd results are on record in publication PMC3982999.

In this test the target is human ubiquitin (human) (UniProt P0CG48). Description: NMR titration.

In the case of “WT spartin 155-367 (GST tag removed) (from UniProt Q8N0X7 155-367) (domain or fragment)”, the Kd was below 10 µM.
